From patent publication US20090099091A1 (Stanford University, published 2009)
Each block holds one binder with its values, some of them ahead of it.

Legend:
Mushroom tyrosinase [1] = target: T1, Mushroom tyrosinase (mushroom, UniProt C7FF04 1-392); experiment: cell-based or functional assay
Mushroom tyrosinase [2] = target: T1, Mushroom tyrosinase; experiment: cell-based or functional assay; remark: listed apart in the source

T1 sequence (C7FF04 1-392): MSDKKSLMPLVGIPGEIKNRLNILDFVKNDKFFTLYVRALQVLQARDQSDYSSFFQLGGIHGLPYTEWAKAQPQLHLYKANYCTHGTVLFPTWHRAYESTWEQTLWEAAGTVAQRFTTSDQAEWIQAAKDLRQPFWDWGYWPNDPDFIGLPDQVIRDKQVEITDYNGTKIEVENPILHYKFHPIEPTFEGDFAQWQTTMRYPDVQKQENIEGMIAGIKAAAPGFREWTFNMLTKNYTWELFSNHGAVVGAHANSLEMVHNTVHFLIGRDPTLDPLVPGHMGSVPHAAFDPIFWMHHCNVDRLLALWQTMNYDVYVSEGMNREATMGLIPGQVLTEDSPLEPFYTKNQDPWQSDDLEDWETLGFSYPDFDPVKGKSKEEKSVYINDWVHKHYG

IC50 (inhibition of mushroom tyrosinase, dopachrome absorbance at 475 nM) (Mushroom tyrosinase [1]): 3600 µM
B1: KFEKKFEK (KF peptide) (peptide)
peptide: KFEKKFEK

IC50 (inhibition of mushroom tyrosinase) (Mushroom tyrosinase [2]): 40 µM
IC50 (inhibition of mushroom tyrosinase, dopachrome absorbance at 475 nM) (Mushroom tyrosinase [1]): 40 µM
B2: YRSRKYSSWY (YR peptide) (peptide)
peptide: YRSRKYSSWY
